Read-outs that look alike come from different tables or passages of the source.
What was measured:
[1] = biological target: T1, SARS-CoV-2 Spike Trimer, His Tag B.1.1.529/Omicron (ACRO Biosystems Cat. No. SPN-052Hz) (SARS-CoV-2, UniProt P0DTC2 16-1213)
[2] = biological target: SARS-CoV-2 Omicron BA.5 (live virus; spike protein) (SARS-CoV-2, UniProt P0DTC2 14-1273); test: cell-based or functional assay
[3] = biological target: T1, SARS-CoV-2 Spike Trimer, His Tag …; remark: listed apart in the source
[4] = biological target: T1, SARS-CoV-2 Spike Trimer, His Tag …; test: SPR (Biacore T200, ACRO Biosystems), 1:1 model
[5] = biological target: T2, SARS-CoV-2 (COVID-19) S protein RBD, His Tag B.1.1.529/Omicron (ACRO Biosystems Cat. No. SPD-052H3) (SARS-CoV-2, UniProt P0DTC2 319-537); test: SPR (Biacore T200, ACRO Biosystems), 1:1 model
T2 construct: domain: RBD; also called Omicron RBD only; Omicron variant RBD

[6] = biological target: T3, SARS-CoV-2 Delta variant B.1.617.2, RBD only (SARS-CoV-2, UniProt P0DTC2 319-537); test: SPR (Biacore T200, ACRO Biosystems), 1:1 model
T3 construct: domain: RBD; also called RBD of the Delta B.1.617.2 variant

[7] = biological target: T1, SARS-CoV-2 Spike Trimer, His Tag …; remark: listed apart in the source
[8] = biological target: SARS-CoV-2 Omicron BA4.6 spike protein trimer (SARS-CoV-2, UniProt P0DTC2 16-1213); test: SPR (Biacore 8K, ACRO Biosystems), 1:1 model
[9] = biological target: SARS-CoV-2 Omicron XBB.1 spike protein trimer (SARS-CoV-2, UniProt P0DTC2 16-1213); test: SPR (Biacore 8K, ACRO Biosystems), 1:1 model
[10] = biological target: SARS-CoV-2 Omicron BQ.1.1 spike protein trimer (SARS-CoV-2, UniProt P0DTC2 16-1213); test: SPR (Biacore 8K, ACRO Biosystems), 1:1 model
[11] = biological target: T4, SARS-CoV-2 Omicron BA.2.75 spike protein trimer (SARS-CoV-2, UniProt P0DTC2 16-1213); test: SPR (Biacore T200, ACRO Biosystems), 1:1 model
T4 construct: also called Omicron subvariant BA2.75 spike trimer

[12] = biological target: SARS-CoV-2 Omicron BA.5 spike protein trimer (SARS-CoV-2, UniProt P0DTC2 16-1213); test: SPR (Biacore T200, ACRO Biosystems), 1:1 model

B1: ACE2 LVE IgG Fc STR chimeric antibody (LiVE) (Fc fusion)
chain: QSTIEEQAKLFLDKFNVEAEDLFYQSSLASWNYNTNITEENVQNMNNAGDKWSAFLKEQSTLAQMYPLQEIQELTVKLQLQALQQNGSSVLSEDKSKRLNTILNTMSTIYSTGKVCNPDNPQECLLLEPGLNEIMANSLDYNERLWAWESWRSEVGKQLRPLYEEYVVLKNEMARANHYEDYGDYWRGDYEVNGVDGYDYSRGQLIEDVEHTFEEIKPLYEHLHAYVRAKLMNAYPSYISPIGCLPAHLLGDMWGRFWTNLYSLTVPFGQKPNIDVTDAMVDQAWDAQRIFKEAEKFFVSVGLPNMTQGFWENSMLTDPGNVQKAVCHPTAWDLGKGDFRILMCTKVTMDDFLTAHHEMGHIQYDMAYAAQPFLLRNGANEGFHEAVGEIMSLSAATPKHLKSIGLLSPDFQEDNETEINFLLKQALTIVGTLPFTYMLEKWRWMVFKGEIPKDQWMKKWWEMKREIVGVVEPVPHDETYCDPASLFHVSNDYSFIRYYTRTLYQFQFQEALCQAAKHEGPLHKCDISNSTEAGQKLFNMLRLGKSEPWTLALENVVGAKNMNVRPLLNYFEPLFTWLKDQNKNSFVGWSTDWSPYADQSIKVRISLKSALGDKAYEWNDNEMYLFRSSVAYAMRQYFLKVKNQMILFGEEDVRVANLKPRISFNFFVTAPKNVSDIIPRTEVEKAIRMSRSRINDAFRLNDNSLEFLGIQPTLGPPNQPPVSGGGGSGGGGSDKTHTCPPCPAPESTRGPSVFLFPPKPKDTLMISRTPEVTCVVVDVSHEDPEVKFNWYVDGVEVHNAKTKPREEQYNSTYRVVSVLTVLHQDWLNGKEYKCKVSNKALPAPIEKTISKAKGQPREPQVYTLPPSRDELTKNQVSLTCLVKGFYPSDIAVEWESNGQPENNYKTTPPVLDSDGSFFLYSKLTVDKSRWQQGNVFSCSVMHEALHNHYTQKSLSLSPGK
[1]
  Kd: 0.144 nM
  koff: 0.000153 s⁻¹
  kon: 1.06e+06 M⁻¹ s⁻¹
[2]
  IC50 of inhibition of viral replication (human airway organoids): 0.0299 µg/mL
[3]
  Kd: 0.114 nM
[4]
  Kd: 0.144 nM
[5]
  Kd: 0.308 nM
[6]
  Kd: 0.554 nM

B2: ACE2 LVE IgG Fc STR YTE chimeric antibody (LiVE Longer) (Fc fusion)
chain: QSTIEEQAKLFLDKFNVEAEDLFYQSSLASWNYNTNITEENVQNMNNAGDKWSAFLKEQSTLAQMYPLQEIQELTVKLQLQALQQNGSSVLSEDKSKRLNTILNTMSTIYSTGKVCNPDNPQECLLLEPGLNEIMANSLDYNERLWAWESWRSEVGKQLRPLYEEYVVLKNEMARANHYEDYGDYWRGDYEVNGVDGYDYSRGQLIEDVEHTFEEIKPLYEHLHAYVRAKLMNAYPSYISPIGCLPAHLLGDMWGRFWTNLYSLTVPFGQKPNIDVTDAMVDQAWDAQRIFKEAEKFFVSVGLPNMTQGFWENSMLTDPGNVQKAVCHPTAWDLGKGDFRILMCTKVTMDDFLTAHHEMGHIQYDMAYAAQPFLLRNGANEGFHEAVGEIMSLSAATPKHLKSIGLLSPDFQEDNETEINFLLKQALTIVGTLPFTYMLEKWRWMVFKGEIPKDQWMKKWWEMKREIVGVVEPVPHDETYCDPASLFHVSNDYSFIRYYTRTLYQFQFQEALCQAAKHEGPLHKCDISNSTEAGQKLFNMLRLGKSEPWTLALENVVGAKNMNVRPLLNYFEPLFTWLKDQNKNSFVGWSTDWSPYADQSIKVRISLKSALGDKAYEWNDNEMYLFRSSVAYAMRQYFLKVKNQMILFGEEDVRVANLKPRISFNFFVTAPKNVSDIIPRTEVEKAIRMSRSRINDAFRLNDNSLEFLGIQPTLGPPNQPPVSGGGGSGGGGSDKTHTCPPCPAPESTRGPSVFLFPPKPKDTLYITREPEVTCVVVDVSHEDPEVKFNWYVDGVEVHNAKTKPREEQYNSTYRVVSVLTVLHQDWLNGKEYKCKVSNKALPAPIEKTISKAKGQPREPQVYTLPPSRDELTKNQVSLTCLVKGFYPSDIAVEWESNGQPENNYKTTPPVLDSDGSFFLYSKLTVDKSRWQQGNVFSCSVMHEALHNHYTQKSLSLSPGK
[2]
  IC50 of inhibition of viral replication (human airway organoids): 0.0269 µg/mL
[3]
  Kd: 0.0734 nM
[7]
  koff: 0.000117 s⁻¹
  kon: 1.59e+06 M⁻¹ s⁻¹
[8]
  Kd: 0.845 nM
[9]
  Kd: 0.215 nM
[10]
  Kd: 0.00181 nM
[11]
  Kd: 0.000133 nM
[4]
  Kd: 0.073 nM
[5]
  Kd: 0.402 nM
[12]
  Kd: 0.00543 nM
